The data set deals with the molecule itself. The experiment in a line: SEC. On the technique in general: SEC sorts molecules by how far they enter the pores of the column.

B1: Death Associated Protein Kinase 1 (DAPK1) K42W, HA tagged, kinase dead (enzyme, human, UniProt P53355 1-1430, looked up)
chain: MTVFRQENVDDYYDTGEELGSGQFAVVKKCREKSTGLQYAAWFIKKRRTKSSRRGVSREDIEREVSILKEIQHPNVITLHEVYENKTDVILILELVAGGELFDFLAEKESLTEEEATEFLKQILNGVYYLHSLQIAHFDLKPENIMLLDRNVPKPRIKIIDFGLAHKIDFGNEFKNIFGTPEFVAPEIVNYEPLGLEADMWSIGVITYILLSGASPFLGDTKQETLANVSAVNYEFEDEYFSNTSALAKDFIRRLLVKDPKKRMTIQDSLQHPWIKPKDTQQALSRKASAVNMEKFKKFAARKKWKQSVRLISLCQRLSRSFLSRSNMSVARSDDTLDEEDSFVMKAIIHAINDDNVPGLQHLLGSLSNYDVNQPNKHGTPPLLIAAGCGNIQILQLLIKRGSRIDVQDKGGSNAVYWAARHGHVDTLKFLSENKCPLDVKDKSGEMALHVAARYGHADVAQLLCSFGSNPNIQDKEEETPLHCAAWHGYYSVAKALCEAGCNVNIKNREGETPLLTASARGYHDIVECLAEHGADLNACDKDGHIALHLAVRRCQMEVIKTLLSQGCFVDYQDRHGNTPLHVACKDGNMPIVVALCEANCNLDISNKYGRTPLHLAANNGILDVVRYLCLMGASVEALTTDGKTAEDLARSEQHEHVAGLLARLRKDTHRGLFIQQLRPTQNLQPRIKLKLFGHSGSGKTTLVESLKCGLLRSFFRRRRPRLSSTNSSRFPPSPLASKPTVSVSINNLYPGCENVSVRSRSMMFEPGLTKGMLEVFVAPTHHPHCSADDQSTKAIDIQNAYLNGVGDFSVWEFSGNPVYFCCYDYFAANDPTSIHVVVFSLEEPYEIQLNQVIFWLSFLKSLVPVEEPIAFGGKLKNPLQVVLVATHADIMNVPRPAGGEFGYDKDTSLLKEIRNRFGNDLHISNKLFVLDAGASGSKDMKVLRNHLQEIRSQIVSVCPPMTHLCEKIISTLPSWRKLNGPNQLMSLQQFVYDVQDQLNPLASEEDLRRIAQQLHSTGEINIMQSETVQDVLLLDPRWLCTNVLGKLLSVETPRALHHYRGRYTVEDIQRLVPDSDVEELLQILDAMDICARDLSSGTMVDVPALIKTDNLHRSWADEEDEVMVYGGVRIVPVEHLTPFPCGIFHKVQVNLCRWIHQQSTEGDADIRLWVNGCKLANRGAELLVLLVNHGQGIEVQVRGLETEKIKCCLLLDSVCSTIENVMATTLPGLLTVKHYLSPQQLREHHEPVMIYQPRDFFRAQTLKETSLTNTMGGYKESFSSIMCFGCHDVYSQASLGMDIHASDLNLLTRRKLSRLLDPPDPLGKDWCLLAMNLGLPDLVAKYNTSNGAPKDFLPSPLHALLREWTTYPESTVGTLMSKLRELGRRDAADFLLKASSVFKINLDGNGQEAYASSCNSGTSYNSISSVVSR
One may read the stoichiometry N as the number of molecules, sites or subunits per partner or assembly. B1: the “stoichiometry N” value was 2.

The values are drawn from publication PMC3458246 (Scientific Reports, 2012).
